B1: CTTN (protein, UniProt Q14247 1-550, looked up)
Src substrate cortactin: MWKASAGHAVSIAQDDAGADDWETDPDFVNDVSEKEQRWGAKTVQGSGHQEHINIHKLRENVFQEHQTLKEKELETGPKASHGYGGKFGVEQDRMDKSAVGHEYQSKLSKHCSQVDSVRGFGGKFGVQMDRVDQSAVGFEYQGKTEKHASQKDYSSGFGGKYGVQADRVDKSAVGFDYQGKTEKHESQRDYSKGFGGKYGIDKDKVDKSAVGFEYQGKTEKHESQKDYVKGFGGKFGVQTDRQDKCALGWDHQEKLQLHESQKDYKTGFGGKFGVQSERQDSAAVGFDYKEKLAKHESQQDYSKGFGGKYGVQKDRMDKNASTFEDVTQVSSAYQKTVPVEAVTSKTSNIRANFENLAKEKEQEDRRKAEAERAQRMAKERQEQEEARRKLEEQARAKTQTPPVSPAPQPTEERLPSSPVYEDAASFKAELSYRGPVSGTEPEPVYSMEAADYREASSQQGLAYATEAVYESAEAPGHYPAEDSTYDEYENDLGITAVALYDYQAAGDDEISFDPDDIITNIEMIDDGWWRGVCKGRYGLFPANYVELRQ
B2: HEATR6 (protein, UniProt Q6AI08 1-1181, looked up)
HEAT repeat-containing …: MAAVQVVGSWPSVQPREAPREAIPERGNGFRLLSARLCALRPDDSSSARTEIHLLFDQLISENYSEGSGVAPEDVSALLVQACRLVPLNQNHLVSKVSQLIHHLLNRLQVIVDEQHLDFLLAYTISAIHQCSSWTHREILQALAALVYCNGSKCQKYLPELLGNTGLLMKLSDLAQSDPEVRRAAVHCMANLCLSVPGQPYLEEPYQNVCFQAFLTILQSPKSSDMDDITFCMLLQNALKGIQSLLNGGRMKLTQTDELGALLAVLKKFMFHGLPGLNIEMPTVLYPTPLPQYDGRTPIKPQQSESSASRPTLNKKKKSKVKPKKIQQGEEEEKESSGEIEAAPVTGTGRVNLHEGNTWCPSSLGVQSLPLDGSGAAEKDGVSSSFSSSSWKRVSSSESDFSDAEGGMQSKMRSYQAKVRQGALVCFLSTIKSIEKKVLYGYWSAFIPDTPELGSPQSVSLMTLTLKDPSPKTRACALQVLSAILEGSKQFLSVAEDTSDHRRAFTPFSVMIACSIRELHRCLLLALVAESSSQTVTQIIKCLANLVSNAPYDRLKLSLLTKVWNQIKPYIRHKDVNVRVSSLTLLGAIVSTHAPLPEVQLLLQQPCSSGLGNSNSATPHLSPPDWWKKAPAGPSLEETSVSSPKGSSEPCWLIRLCISIVVLPKEDSCSGSDAGSAAGSTYEPSPMRLEALQVLTLLARGYFSMTQAYLMELGEVICKCMGEADPSIQLHGAKLLEELGTGLIQQYKPDSTAAPDQRAPVFLVVMFWTMMLNGPLPRALQNSEHPTLQASACDALSSILPEAFSNLPNDRQMLCITVLLGLNDSKNRLVKAATSRALGVYVLFPCLRQDVIFVADAANAILMSLEDKSLNVRAKAAWSLGNLTDTLIVNMETPDPSFQEEFSGLLLLKMLRSAIEASKDKDKVKSNAVRALGNLLHFLQPSHIEKPTFAEIIEESIQALISTVLTEAAMKVRWNACYAMGNVFKNPALPLGTAPWTSQAYNALTSVVTSCKNFKVRIRSAAALSVPGKREQYGSVDQYARIWNALVTALQKSEDTIDFLEFKYCVSLRTQICQALIHLLSLASASDLPCMKETLELSGNMVQSYILQFLKSGAEGDDTGAPHSPQERDQMVRMALKHMGSIQAPTGDTARRAIMGFLEEILAVCFDSSGSQGALPGLTNQ
B3: AIP (protein, UniProt O00170 1-330, looked up)
AH receptor-interacting …: MADIIARLREDGIQKRVIQEGRGELPDFQDGTKATFHYRTLHSDDEGTVLDDSRARGKPMELIIGKKFKLPVWETIVCTMREGEIAQFLCDIKHVVLYPLVAKSLRNIAVGKDPLEGQRHCCGVAQMREHSSLGHADLDALQQNPQPLIFHMEMLKVESPGTYQQDPWAMTDEEKAKAVPLIHQEGNRLYREGHVKEAAAKYYDAIACLKNLQMKEQPGSPEWIQLDQQITPLLLNYCQCKLVVEEYYEVLDHCSSILNKYDDNVKAYFKRGKAHAAVWNAQEAQADFAKVLELDPALAPVVSRELRALEARIRQKDEEDKARFRGIFSH

Each molecule was assayed on Hsp90 complexes in K562 cell extract (assay: Nano-LC-MS/MS of PU-beads pull-downs). Details: protein identified in PU-beads pull-down of K562 cell extract, Prep 1; QSTAR-Elite QTof MS.
Assay type: binding
Experimental: Protein cargo isolated from cell lysate with PU-beads or control-beads was subjected to proteomic analysis by nano liquid chromatography coupled to tandem mass spectrometry (nano LC-MS/MS). Initial protein identification was performed using the Mascot search engine, and was further evaluated using Scaffold Proteome Software (Tables 5a-d).
(§1) Lysates prepared as mentioned above were first pre-cleaned by incubation with control beads overnight at 4° C. […] Beads were washed with lysis buffer, proteins eluted by boiling in 2% SDS, separated on a denaturing gel and Coomassie stained according to manufacturer's procedure (Biorad). […] Analyses of the batch purified pools were done using a QSTAR-Elite hybrid quadrupole time-of-flight mass spectrometer (QTof MS) (AB/MDS Sciex), equipped with a nano spray ion source. Peptide mixtures (in 20 μL) are loaded onto a trapping guard column (0.3×5-mm PepMap C18 100 cartridge from LC Packings) using an Eksigent nano MDLC system (Eksigent Technologies, Inc) at a flow rate of 20 μL/min. […] Electrospray ionization (ESI) needle voltage was set at about 1800 V. The mass analyzer is operated in automatic, data-dependent MS/MS acquisition mode, with the threshold set to 10 counts per second of doubly or triply charged precursor ions selected for fragmentation scans. Survey scans of 0.25 sec are recorded from 400 to 1800 amu; up to 3 MS/MS scans are then collected sequentially for the selected precursor ions, recording from 100 to 1800 amu. The collision energy is automatically adjusted in accordance with the m/z value of the precursor ions selected for MS/MS. Selected precursor ions are excluded from repeated selection for 60 sec after the end of the corresponding fragmentation duty cycle. […] One missed tryptic cleavage site was allowed, precursor ion mass tolerance=0.4 Da fragment ion mass tolerance=0.4 Da, protein modifications were allowed for Met-oxide, Cys-acrylamide and N-terminal acetylation. MudPit scoring was typically applied with ‘require bold red’ activated, and using significance threshold score p<0.05. Unique peptide counts (or ‘spectral counts’) and percent sequence coverages for all identified proteins were exported to Scaffold Proteome Software (version 2_06_01, www.proteomesoftware.com) for further bioinformatic analysis (Table 5a). Using output from Mascot, Scaffold validates, organizes, and interprets mass spectrometry data, allowing more easily to manage large amounts of data, to compare samples, and to search for protein modifications.

Molecule	Number of Assigned Spectra, K562 Prep 1
B1	6
B2	2
B3	10

Same assay, conditions: protein identified in PU-beads pull-down of K562 cell extract, Prep 2; QSTAR-Elite QTof MS

Molecule	Number of Assigned Spectra, K562 Prep 2
B1	6
B2	1
B3	0

What follows are molecules tested on Hsp90 complexes in Mia-PaCa-2 cell extract (assay: Nano-LC-MS/MS of PU-beads pull-downs). Details: protein identified in PU-beads pull-down of Mia-PaCa-2 cell extract; QSTAR-Elite QTof MS.
Assay type: binding, human
Experimental: as §1

Molecule	Number of Assigned Spectra, Mia-Paca 2
B1	2
B2	0
B3	0

From patent US20220074941A1, “HSP90 COMBINATION THERAPY” (Sloan-Kettering Institute for Cancer Research, priority 2011, published 2022)
